Reference: patent CN110144011A (SHANGHAI NOVAMAB BIOPHARMACEUTICALS CO LTD, dated 2019)

Assays:
[1] = target: TIM-3 on HEK 293T TIM-3稳转细胞 (UniProt Q8TDQ0); assay: flow cytometry on HEK 293T TIM-3 stable cells, 6 ug antibody per 5x10^5 cells, goat-anti-human FITC
[2] = target: TIM-3 on HEK 293T TIM-3稳转细胞 (UniProt Q8TDQ0); assay: flow cytometry on HEK293T TIM-3 stable cells, 6 ug nanobody per well, anti-His Alexa Fluor 488
[3] = target: T1, TIM3(ECD)-Fc抗原 (human, UniProt Q8TDQ0 22-202); assay: ELISA of crude periplasmic extract on antigen-coated plate, anti-HA detection; clones positive at OD ratio to control >3
T1 construct: extracellular domain;domain: Fc; Made in HEK293F cells, purified on Protein A; also called 人TIM3(ECD); pFUSE-IgG1-TIM3(ECD); not shown: TEV cleavage site at the C-terminus of TIM3(ECD); IgG1 Fc of the pFUSE-IgG1 vector
T1 sequence (looked up): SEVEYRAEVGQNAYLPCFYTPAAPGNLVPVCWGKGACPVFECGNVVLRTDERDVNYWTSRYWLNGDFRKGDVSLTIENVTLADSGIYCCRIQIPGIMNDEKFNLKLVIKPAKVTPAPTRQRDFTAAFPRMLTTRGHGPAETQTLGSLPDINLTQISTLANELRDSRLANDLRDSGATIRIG

Molecule: TIM-3阳性抗体(bench marker，BMK; TSR-022) (antibody)
- 阳性细胞比例 [1]: 98.1%

B1: Nb16 (VHH)
VHH: QVQLQESGGGSVQAGGSLRLSCTASRSTYCMGWFRQAPGKEREGVAIISSDGRTNYADPVKGRFTISKDNAKNTMFLQMNSLKPEDTAMYYCATRPGNSCGTGIDMPYWGKGTQVTVSS
notes: Camel VHH from the pMECS vector, made in E. coli; detected through HA tag (ELISA) or His tag (flow cytometry); also called 抗体株16
- 结合力 (阳性细胞的比例) [2]: > 80%
- binding result [3]: binds

B2: Nb18 (VHH)
VHH: QVQLQESGGGLVQPGGSLRLSCAASGFTFSVADMSWVRQGPGKGFEWVSSINSDGVSTYYADSVKGRFTISRDNAENTLYLRANSLKTEDTAVYYCAIGHTPCTAGSCRRGQGTQVTVSS
- 结合力 (阳性细胞的比例) [2]: > 80%

B3: Nb20 (VHH)
VHH: QVQLQESGGGLVQPGGSLRLSCAASGFTFSVADMTWVRQGLGKGFEWVASVNSDGGSTYYADSVKGRFTISRDNAKNTLYLRLNSLKTEDTAVYYCAIGRTPCTGGFCHRGQGTQVTVSS
- 结合力 (阳性细胞的比例) [2]: > 80%

B4: Nb21 (VHH)
VHH: QVQLQESGGGSVQAGGSLRLYCAASKITYVSSCMGWFRQAPGKEREGVASIDRDGSTTYADSVKGRFTISRDNAKDSLYLQMNSLKPEDTAMYYCAADWGRWCSLEKAVDFVYWGQGTQVTVSS
notes: Camel VHH from the pMECS vector, made in E. coli; detected through HA tag (ELISA) or His tag (flow cytometry); also called 抗体株21
- 结合力 (阳性细胞的比例) [2]: > 80%
- binding result [3]: binds

B5: Nb22 (VHH)
VHH: QVQLQESGGGSVRAGGSLRLSCAASGYTYSLYCMGWFRQAPGKEREGVAAISAGGGTTYYSDAVKGRFTISRDNAKKTLYLQMNSLNPEDTAMYYCARSGGYCGLLEYPFTSWGPGTQVTVSS
notes: Camel VHH from the pMECS vector, made in E. coli; detected through HA tag (ELISA) or His tag (flow cytometry); also called 抗体株22
- 结合力 (阳性细胞的比例) [2]: > 80%
- binding result [3]: binds

B6: Nb23 (VHH)
VHH: QVQLQESGGGSVQTGGSLRLSCTASGFTFSSADMSWVRQAPGKGLEWVSSINSGGGWTDYADSVQGRFTISRDNGKNTLYLQMNSLKTEDTAVYYCTIGNTYCSRGACLRGQGTQVTVSS
- 结合力 (阳性细胞的比例) [2]: > 80%

B7: Nb24 (VHH)
VHH: QVQLQESGGGLVQPGGSLRLSCAASGFTFSVADMSWVRQAPGKGLEWVSSINSGGGRTYYADSMKGRFTISRDNGKNTLYLQMNSLKTEDTAVYYCTIGHTYCSGGACLRGQGTQVTVSS
- 结合力 (阳性细胞的比例) [2]: > 80%

B8: Nb25 (VHH)
VHH: QVQLQESGGGSVQAGGSLRLSCAASVDIYRTYCMGWFRQAPGKQREGVAAISTDGRIRYANSVEGRFTISKDNANNTLYLQMNSLKPEDTAMYFCAADSARCGLWLGGGYPNYWGRGTQVTVSS
notes: Camel VHH from the pMECS vector, made in E. coli; detected through HA tag (ELISA) or His tag (flow cytometry); also called 抗体株25
- 结合力 (阳性细胞的比例) [2]: > 80%
- binding result [3]: binds

B9: Nb26 (VHH)
VHH: QVQLQESGGGLVQPGGSLRLSCTASGSTFSTALMGWFRQAPGKEREGVAVISAGGGSTWYADSVKGRFTISRDNTKNTVFLQMISLKPEDTAMYYCASSNSLWTRESRYFGYWGQGTQVTVSS
notes: Camel VHH from the pMECS vector, made in E. coli; detected through HA tag (ELISA) or His tag (flow cytometry); also called 抗体株26
- 结合力 (阳性细胞的比例) [2]: > 80%
- binding result [3]: binds

B10: Nb27 (VHH)
VHH: QVQLQESGGGLVQPGGSLRLSCAAAGFTFSSSEMTWVRQAPGKGLEWVARISSTSAFTQYAGSVKGRFTISRDNAKNTLYLQLNSLKTEDTAMYYCAKDVYCGGQYCPPVGPGTQVTVSS
- 结合力 (阳性细胞的比例) [2]: > 80%

B11: Nb15 (VHH)
VHH: QVQLQESGGGSVQAGGSLKLSCTASVWIFSNCAMAWYRQAPGKEREFVSAIGSFRDTNYADSVKGRFTISRDNAKNTGYLQMNSLKPEDSAMYYCKIQCGTQVNWGQGTQVTVSS
notes: Camel VHH from the pMECS vector, made in E. coli; detected through HA tag (ELISA) or His tag (flow cytometry); also called 抗体株15
- binding result [3]: binds

B12: Nb17 (VHH)
VHH: QVQLQESGGGSVQAGGSLRLSCAASTTLYIASLGWFRQAPGKEREGVAAVDRDGNLDYADSVKGRFTFSRDHAKNTLYLQMNSLKPEDAAMYYCSAALSYVPAGRRLQPDAYNYWGQGTQVTVSS
notes: Camel VHH from the pMECS vector, made in E. coli; detected through HA tag (ELISA) or His tag (flow cytometry); also called 抗体株17
- binding result [3]: binds

B13: Nb19 (VHH)
VHH: QVQLQESGGGSVQAGGSLRLSCAASTYTVVRNCFGWFRQAPGKKREGVAVIDRDGSTRYAASVKGRFTISKDNAKNALYLQMSSLEPEDTAVYYCAADWNNDRSCPLWADGFGYWGQGTQVTVSS
notes: Camel VHH from the pMECS vector, made in E. coli; detected through HA tag (ELISA) or His tag (flow cytometry); also called 抗体株19
- binding result [3]: binds

B14: Nb4 (VHH)
VHH: QVQLQESGGGSVQAGGSLRLSCTASGYTYSRACMGWFRQAPGKQREWVSGIRHDGSTSYADSVKGRFTISRDNAKNTLYLQMNSLKPEDTAMYYCGADIDCRQSRPPYWGQGTQVTVSS
notes: Camel VHH from the pMECS vector, made in E. coli; detected through HA tag (ELISA) or His tag (flow cytometry); also called 抗体株4
- binding result [3]: binds

B15: Nb2 (VHH)
VHH: QVQLQESGGGSVQVGGSLRLSCTASGYTYSRACMGWFRQAPGKQREWVSGIRHDGSTSYADSVKGRFTISRDNTKNTLYLQMNSLKPEDTAMYYCGADIDCRQSRPPYWGQGTQVTVSS
notes: Camel VHH from the pMECS vector, made in E. coli; detected through HA tag (ELISA) or His tag (flow cytometry); also called 抗体株2
- binding result [3]: binds

B16: Nb3 (VHH)
VHH: QVQLQESGGGSVQVGGSLRLSCTASGYTYSRACMGWFRQAPGKQRDWVSGIRHDGSTSYADSVKGRFTISRDNAKNTLYLQMNSLKPEDTAMYYCGADIDCRQSRPPYWGQGTQVTVSS
notes: Camel VHH from the pMECS vector, made in E. coli; detected through HA tag (ELISA) or His tag (flow cytometry); also called 抗体株3
- binding result [3]: binds

B17: Nb5 (VHH)
VHH: QVQLQESGGGSVQVGGSLRLSCTASGYTYSRACMGWFRQAPGKQREWVSGIRHDGSTSYADSVKGRSTISRDNAKNTLYLQMNSLKPEDTAMYYCGADIDCRQSRPPYWGQGTQVTVSS
notes: Camel VHH from the pMECS vector, made in E. coli; detected through HA tag (ELISA) or His tag (flow cytometry); also called 抗体株5
- binding result [3]: binds

B18: Nb6 (VHH)
VHH: QVQLQESGGGSVQVGGSLRLSCTASGYTYSRACMGWFRQAPGKQREWVSGIRHDGSITYADSVKGRFTISRDNAKNTLYLQMNSLKPEDTAMYYCGADIDCRGTRPPYWGQGTQVTVSS
notes: Camel VHH from the pMECS vector, made in E. coli; detected through HA tag (ELISA) or His tag (flow cytometry); also called 抗体株6
- binding result [3]: binds

B19: Nb7 (VHH)
VHH: QVQLQESGGGSVQAGGSLRLSCAASGYTYSRACMGWFRQAPGKQREWVSGIRHDGSITYADSVKGRFTISRDNAKNTLYLQMNSLKPEDTAMYYCGADIDCRGTRPPYWGQGTQVTVSS
notes: Camel VHH from the pMECS vector, made in E. coli; detected through HA tag (ELISA) or His tag (flow cytometry); also called 抗体株7
- binding result [3]: binds

B20: Nb8 (VHH)
VHH: QVQLQESGGGSVQAGGSLRLSCTASGYTYSRACMGWFRQAPGKQREWVSGIRHDGSITYADSVKGRFTISRDNAKNTLYLQMNNLKPEDTAMYYCGADIDCRGTRPPYWGQGTQVTVSS
notes: Camel VHH from the pMECS vector, made in E. coli; detected through HA tag (ELISA) or His tag (flow cytometry); also called 抗体株8
- binding result [3]: binds

B21: Nb28 (VHH)
VHH: QVQLQESGGGSVQAGGSLRLSCAATKALVISCLAWFRQAPGKEREWVALIGRDGSTSYPDSVKGRFTFSKNTAKNTLELQMNNLKPEDTGAYYCAAATKQDGIPLNPADYDIWGRGTQVTVSS
notes: Camel VHH from the pMECS vector, made in E. coli; detected through HA tag (ELISA) or His tag (flow cytometry); also called 抗体株28
- binding result [3]: binds
